In publication PMC12618267, “GAGA zinc finger transcription factor searches chromatin by 1D–3D facilitated diffusion”:

Tests used:
[1] = test system: T1, HA-GAF-FL (Drosophila melanogaster), Q08605-2; assay: EMSA; conditions: ~15 nM protein, 3 nM NCP; 12.5 mM HEPES-KOH pH 7.6, 0.05 mM EDTA, 6.25 mM MgCl2, 5% glycerol, 50 mM NaCl, 50 ug/ml BSA, 0.05% NP-40; EMSA at room temperature; smFRET adds dextrose …
T1 sequence: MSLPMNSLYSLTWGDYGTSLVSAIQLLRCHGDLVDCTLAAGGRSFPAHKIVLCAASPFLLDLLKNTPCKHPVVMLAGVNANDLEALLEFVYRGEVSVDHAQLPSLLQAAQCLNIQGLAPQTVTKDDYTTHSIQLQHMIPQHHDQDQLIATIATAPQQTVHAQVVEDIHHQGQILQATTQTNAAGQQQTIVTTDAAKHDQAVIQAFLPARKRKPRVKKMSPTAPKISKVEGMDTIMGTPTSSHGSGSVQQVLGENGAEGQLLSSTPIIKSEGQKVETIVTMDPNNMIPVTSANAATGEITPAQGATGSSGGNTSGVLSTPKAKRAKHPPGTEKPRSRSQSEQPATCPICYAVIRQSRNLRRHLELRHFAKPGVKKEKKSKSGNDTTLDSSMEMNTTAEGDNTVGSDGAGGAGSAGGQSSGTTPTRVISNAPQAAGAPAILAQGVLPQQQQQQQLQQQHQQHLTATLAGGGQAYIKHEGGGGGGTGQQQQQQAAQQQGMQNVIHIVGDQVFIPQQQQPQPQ

[2] = test system: T2, Cy3-GAF-DBD / GAF-DBD (Drosophila melanogaster), Q08605-2; assay: smFRET; conditions: from koff/kon; dwell 3.1 s; 6.25 mM Mg2+; 12.5 mM HEPES-KOH pH 7.6, 0.05 mM EDTA, 6.25 mM MgCl2, 5% glycerol, 50 mM NaCl, 50 ug/ml BSA, 0.05% NP-40; EMSA at room temperature; smFRET adds dextrose …
T2 sequence: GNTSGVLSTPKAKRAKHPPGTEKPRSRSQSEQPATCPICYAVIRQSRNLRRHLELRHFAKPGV

[3] = molecular target: SNAP-tagged full-length GAGA factor (MBP–SNAP–GAF–6×His) (Drosophila melanogaster); assay: mass photometry; Refeyn TwoMP; proteins free in solution; optical tweezers imaging buffer without NP-40; 10-min incubation before measuring; at concentrations similar to those of the optical tweezers experiments (80 nM GAF-FL, 25 nM GAF-ΔPOZ)
[4] = test system: T2, Cy3-GAF-DBD / GAF-DBD (Drosophila melanogaster), Q08605-2; assay: EMSA; conditions: 3 nM DNA; 12.5 mM HEPES-KOH pH 7.6, 0.05 mM EDTA, 6.25 mM MgCl2, 5% glycerol, 50 mM NaCl, 50 ug/ml BSA, 0.05% NP-40; EMSA at room temperature; smFRET adds dextrose …
HA-GAF-FL = molecular target: T3, HA-GAF-FL (Drosophila melanogaster, UniProt Q08605-2 1-519); assay: EMSA; 3 nM DNA; 12.5 mM HEPES-KOH pH 7.6, 0.05 mM EDTA, 6.25 mM MgCl2, 5% glycerol, 50 mM NaCl, 50 ug/ml BSA, 0.05% NP-40; EMSA at room temperature; smFRET adds dextrose, Trolox, glucose oxidase, catalase; conditions: protein: recombinant; tags: N-terminal HA; chain copies: 6; label: Cy5 at end
T3 sequence: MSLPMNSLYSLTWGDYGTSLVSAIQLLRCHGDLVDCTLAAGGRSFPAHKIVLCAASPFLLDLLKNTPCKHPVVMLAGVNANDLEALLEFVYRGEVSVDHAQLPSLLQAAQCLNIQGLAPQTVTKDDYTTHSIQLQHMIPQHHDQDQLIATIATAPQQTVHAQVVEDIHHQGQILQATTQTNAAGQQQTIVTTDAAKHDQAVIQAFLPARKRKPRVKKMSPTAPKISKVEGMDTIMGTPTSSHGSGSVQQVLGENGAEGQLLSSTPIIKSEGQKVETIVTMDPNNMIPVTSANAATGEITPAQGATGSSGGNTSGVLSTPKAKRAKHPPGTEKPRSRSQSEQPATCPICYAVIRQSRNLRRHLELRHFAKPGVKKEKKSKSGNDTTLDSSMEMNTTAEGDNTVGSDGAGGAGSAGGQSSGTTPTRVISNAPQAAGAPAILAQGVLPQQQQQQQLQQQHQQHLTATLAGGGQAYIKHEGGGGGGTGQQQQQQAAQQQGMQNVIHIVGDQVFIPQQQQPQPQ

## GTGTCATTTGTTTGGCAGAAAGAAAACTCGAGAAATTTCTCTGGCCGTTATTCTCTATTCGTTTTGTGACTCTCCCTCTCTGTACTATTGCTCTCTCACTCTGTCGCACAGTAAACGGCACACTGTTCTCGTTGCTTCGAGAGAGCGCGCCTCGAA (double strand) [hsp70 NCP (3-N-6 nucleosome)]
[1]
  binding signal (fold less bound than free DNA): 2

## GTTTTGTGAGTACGCGCTGTTGTACTATTGTTAACCCACAAGGTCGCACAGTAAACGGCACACTGTACGTGTTGCTTCGAGAGAGCGCGC (double strand) [Cy5-cognate DNA 90 bp]
[2]
  Kd: 11.5 nM

## SNAP-tagged full-length GAGA factor (MBP–SNAP–GAF–6×His) (natural protein)
[3]
  stoichiometry N: 8

## GTGTCATTTGTTTGGCAGAAAGAAAACTCGAGAAATTTCTCTGGCCGTTATTCTCTATTCGTTTTGTGACTCTCCCTCTCTGTACTATTGCTCTCTCACTCTGTCGCACAGTAAACGGCACACTGTTCTCGTTGCTTCGAGAGAGCGCGCCTCGAA (double strand) [hsp70 NCP DNA (free, 3-N-6)]
[4]
  K half: 12 nM

B1: hsp70 NCP DNA (free, 3-N-6) (dsDNA)
DNA 1: GTGTCATTTGTTTGGCAGAAAGAAAACTCGAGAAATTTCTCTGGCCGTTATTCTCTATTCGTTTTGTGACTCTCCCTCTCTGTACTATTGCTCTCTCACTCTGTCGCACAGTAAACGGCACACTGTTCTCGTTGCTTCGAGAGAGCGCGCCTCGAA
DNA 2: TTCGAGGCGCGCTCTCTCGAAGCAACGAGAACAGTGTGCCGTTTACTGTGCGACAGAGTGAGAGAGCAATAGTACAGAGAGGGAGAGTCACAAAACGAATAGAGAATAACGGCCAGAGAAATTTCTCGAGTTTTCTTTCTGCCAAACAAATGACAC
HA-GAF-FL
  binding result: binds
